± gives the uncertainty stated by the source.
B1: Neutrophil cytosol factor 2, residues 456 to 514; numbered along this chain, P19878 (parent)
chain: LKKGSQVEALFSYEATQPEDLEFQEGDIILVLSKVNEEWLEGECKGKVGIFPKVFVEDC

Variants of: B1
Assay: abundance fitness (aPCA) (normalised: wild type 0, dead -1); higher = more abundant; growth selection in yeast, the domain comes from the species named
Conditions: Homo sapiens

Q: For LKKVSQVEALFSYEATQPEDLEFQEGDIILVLSKVNEEWLEGECKGKVGIFPKVFVEDC, which abundance fitness is on record?
A: -0.452 ± 0.17

Q: With LKKGSQVEALFSYEATQPEILEFQEGDIILVLSKVNEEWLEGECKGKVGIFPKVFVEDC as the variant, how does the abundance fitness read?
A: -0.375 ± 0.13

Q: With LKKGSQVEALFSYEATQPEDLEFQEGDIILVLSKVNEEWLEGECKGKVAIFPKVFVEDC as the variant, how does the abundance fitness read?
A: -0.59 ± 0.18

Q: Which abundance fitness does the source give for LKKGSQVEALFSYEATQPEDLEFQEGDIILVLSKVNEEWLEGECKGKVGIFPKVFAEDC here?
A: -0.719 ± 0.18

Q: Which abundance fitness does the source give for LKKGSQVEALFSYEATQPEDLEFQEGDIILVLSMVNEEWLEGECKGKVGIFPKVFVEDC here?
A: -0.326 ± 0.2

Q: Which abundance fitness does the source give for LKKGSQVEALFSYEATQPEDLEFQEGDIILVLSKVNEEWLEGECKGKVGIFPKVYVEDC here?
A: 0.152 ± 0.11

Q: With LKKGSQVEALFSYEATQPEDLEFQEMDIILVLSKVNEEWLEGECKGKVGIFPKVFVEDC as the variant, how does the abundance fitness read?
A: -0.103 ± 0.25

Q: Which abundance fitness does the source give for LKKGSQTEALFSYEATQPEDLEFQEGDIILVLSKVNEEWLEGECKGKVGIFPKVFVEDC here?
A: 0.249 ± 0.18

Q: Which abundance fitness does the source give for LKKGSQVEALFSYEATQPEDLEPQEGDIILVLSKVNEEWLEGECKGKVGIFPKVFVEDC here?
A: -0.848 ± 0.35

Q: Which abundance fitness does the source give for LKKGSQVEALFSYEATQREDLEFQEGDIILVLSKVNEEWLEGECKGKVGIFPKVFVEDC here?
A: -0.163 ± 0.1

Q: For LKKGSQVEALFSYEATQPEDLEFQEGDIILVLSKVNEEWLEGECKGHVGIFPKVFVEDC, which abundance fitness is on record?
A: -0.673 ± 0.2

Q: For LKKGSQVEALFSYEATQPEDLEFQEGDIILVLSKVNEEWLEGECKGKVGIFPKVFVEDS, which abundance fitness is on record?
A: -0.012 ± 0.091

Q: With LKKGSQVELLFSYEATQPEDLEFQEGDIILVLSKVNEEWLEGECKGKVGIFPKVFVEDC as the variant, how does the abundance fitness read?
A: -0.471 ± 0.17

Q: With LKKGSQVEALFSYEATQPEDLEFQEGDIILVLSWVNEEWLEGECKGKVGIFPKVFVEDC as the variant, how does the abundance fitness read?
A: -0.437 ± 0.31

Q: Which abundance fitness does the source give for LKKGSQVEALFSSEATQPEDLEFQEGDIILVLSKVNEEWLEGECKGKVGIFPKVFVEDC here?
A: -0.487 ± 0.11

Q: For LKKGPQVEALFSYEATQPEDLEFQEGDIILVLSKVNEEWLEGECKGKVGIFPKVFVEDC, which abundance fitness is on record?
A: -0.804 ± 0.33

Q: With LKKGSQVEALFSYEATQPEDLEFPEGDIILVLSKVNEEWLEGECKGKVGIFPKVFVEDC as the variant, how does the abundance fitness read?
A: -0.727 ± 0.4

Q: Which abundance fitness does the source give for LKKGSQVEATFSYEATQPEDLEFQEGDIILVLSKVNEEWLEGECKGKVGIFPKVFVEDC here?
A: -0.528 ± 0.39

Q: With LKKWSQVEALFSYEATQPEDLEFQEGDIILVLSKVNEEWLEGECKGKVGIFPKVFVEDC as the variant, how does the abundance fitness read?
A: -0.84 ± 0.41

Q: For LKKGSQVEALFSYRATQPEDLEFQEGDIILVLSKVNEEWLEGECKGKVGIFPKVFVEDC, which abundance fitness is on record?
A: 0.096 ± 0.084

Q: With LKKGSQVEALFGYEATQPEDLEFQEGDIILVLSKVNEEWLEGECKGKVGIFPKVFVEDC as the variant, how does the abundance fitness read?
A: -0.377 ± 0.15

Q: With LKKGSQVEALFSYEATQPEDLEFQEGDIILVLSKVNEEWLEGECKGVVGIFPKVFVEDC as the variant, how does the abundance fitness read?
A: -0.331 ± 0.1

Q: With LKKGSQVEALFSYEATQPEDLEFQEGDIILVLSKVNEEWLEGECKGKVGILPKVFVEDC as the variant, how does the abundance fitness read?
A: -0.735 ± 0.15

Q: For LKKGSQVEALFSYEATQPEDLEFQEGDIILVLSKVNEEWHEGECKGKVGIFPKVFVEDC, which abundance fitness is on record?
A: -0.764 ± 0.25

Q: For LKKGSQVENLFSYEATQPEDLEFQEGDIILVLSKVNEEWLEGECKGKVGIFPKVFVEDC, which abundance fitness is on record?
A: -0.537 ± 0.42

Q: Which abundance fitness does the source give for LKKGSQVEALFSYEATQPEDLEFQEGDIILVLSKVNEEWLEGECKGAVGIFPKVFVEDC here?
A: -1.04 ± 0.27

Q: For LKKGSQVEALFSCEATQPEDLEFQEGDIILVLSKVNEEWLEGECKGKVGIFPKVFVEDC, which abundance fitness is on record?
A: -0.432 ± 0.19

Q: For LKKGSQVEALFSYEATQPEDLEFQEGDIILVLSKVNEEWLEPECKGKVGIFPKVFVEDC, which abundance fitness is on record?
A: -0.375 ± 0.18

Q: With LKKGSQVEALFSYEATQPEDLEGQEGDIILVLSKVNEEWLEGECKGKVGIFPKVFVEDC as the variant, how does the abundance fitness read?
A: -0.198 ± 0.13

Q: For LKKGSQVEALFSYEATQPEDLEFQEGDIILVLSKVNEEWLEGECKGKVGIFPPVFVEDC, which abundance fitness is on record?
A: -0.716 ± 0.29

Q: With LKKGSQVEALFSYEATQPEDLEFQEGDIILVLSKVNEEWLEGECKGKVGIFPKAFVEDC as the variant, how does the abundance fitness read?
A: 0.431 ± 0.11

Q: With LKRGSQVEALFSYEATQPEDLEFQEGDIILVLSKVNEEWLEGECKGKVGIFPKVFVEDC as the variant, how does the abundance fitness read?
A: -0.397 ± 0.22

Q: Which abundance fitness does the source give for LKKGSAVEALFSYEATQPEDLEFQEGDIILVLSKVNEEWLEGECKGKVGIFPKVFVEDC here?
A: -0.717 ± 0.27

Q: Which abundance fitness does the source give for LKKGSQVEALFSYEATQPEDLEFQEGDIILVLSKVNEEWLEAECKGKVGIFPKVFVEDC here?
A: -0.146 ± 0.13

Q: With LKKGSQVEALFSYEATQPEDLEFQEGDIILVLSKVNEEWMEGECKGKVGIFPKVFVEDC as the variant, how does the abundance fitness read?
A: -0.042 ± 0.19

Q: For KKKGSQVEALFSYEATQPEDLEFQEGDIILVLSKVNEEWLEGECKGKVGIFPKVFVEDC, which abundance fitness is on record?
A: -0.529 ± 0.49

Q: Which abundance fitness does the source give for LKKGSQVEALFSYEATQPEDLEFQEGDIILVLSKVNEEWLEGECKGKVMIFPKVFVEDC here?
A: -0.075 ± 0.22

Q: For LKKGSQVEALFSYEATQPEDLEFQEGDIILVLSKVNEEPLEGECKGKVGIFPKVFVEDC, which abundance fitness is on record?
A: -0.598 ± 0.2

Q: With LKKGSQVEALFSYEATQPEDLEFQEGDIILVLSKVNEEWLEGECKGKVGIFPKPFVEDC as the variant, how does the abundance fitness read?
A: -0.459 ± 0.23

Q: With LKKGSQVEALFSYEATQPEDLEFQEGDIILVLSKVNEEWLEGECKAKVGIFPKVFVEDC as the variant, how does the abundance fitness read?
A: -0.313 ± 0.15

Q: With LKKGSQVEALFHYEATQPEDLEFQEGDIILVLSKVNEEWLEGECKGKVGIFPKVFVEDC as the variant, how does the abundance fitness read?
A: -0.44 ± 0.16

Q: With LKKGSQVEALCSYEATQPEDLEFQEGDIILVLSKVNEEWLEGECKGKVGIFPKVFVEDC as the variant, how does the abundance fitness read?
A: 0.418 ± 0.14

Q: Which abundance fitness does the source give for LKKGSQVEALFSYEATQPEDLEFQEGDIILVLSKVNEEWLEGEGKGKVGIFPKVFVEDC here?
A: -0.383 ± 0.094

Q: For LKKGSQVEALFSREATQPEDLEFQEGDIILVLSKVNEEWLEGECKGKVGIFPKVFVEDC, which abundance fitness is on record?
A: 0.458 ± 0.085

Q: With LKKGSQVEALFSYEATQLEDLEFQEGDIILVLSKVNEEWLEGECKGKVGIFPKVFVEDC as the variant, how does the abundance fitness read?
A: -0.801 ± 0.18

From the Human Domainome abundance scans (Beltran et al. 2025)
